The record followed here is patent US8748104.

As a reminder, the Kd is the equilibrium constant for the complex coming apart. High values mean weaker binding, low ones tighter binding.

The target of data set [1] is skeletal Troponin I (UniProt P48788). The conditions noted are these: Luminex bead fluorescence assay, streptavidin-phycoerythrin detection; room temperature 1 h, PBS washes.
Data set [2] shares this target. The settings on record: Luminex bead fluorescence assay, streptavidin-phycoerythrin detection; room temperature 1 h, PBS washes. This is another data set of the same source.

Where two headings read alike, the source gives them in different places.

UniProt P48788, sequence (P48788 2-182): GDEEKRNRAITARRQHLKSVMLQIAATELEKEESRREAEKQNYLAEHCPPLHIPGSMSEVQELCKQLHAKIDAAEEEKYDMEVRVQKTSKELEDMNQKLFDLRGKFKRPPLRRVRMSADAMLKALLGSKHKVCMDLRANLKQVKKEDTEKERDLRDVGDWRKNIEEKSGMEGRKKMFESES

In the data set with skeletal Troponin I [1], “GGGATGGGGTGGGTGGCCAGCGATT [SEQ ID NO: 1 aptamer]” had a Kd of 37.7 nM. This counts as double-digit nanomolar.
Regarding “TTAGGGGTGGTGTGGTTGGCAATTC [SEQ ID NO: 2 aptamer]”, in the data set with skeletal Troponin I [2], the Kd was found to be 5 nM.
